Data taken from patent publication US20060257938A1, “Method of screening for drugs that block ligand binding to a lipid binding protein” (priority 2005, published 2006).
Residue numbers refer to the chain shown, from its start.

B1: 18I 31L 55L 72A (protein, listed as Rattus norvegicus)
chain: AFDGTWKVDRNENYEKFIEKMGINVVKRKLLAHDNLKLTITQEGNKFTVKESSNLRNIDVVFELGVDFAYSAADGTELTGTWTMEGNKLVGKFKRVDNGKELIAVREISGNELIQTYTYEGVEAKRIFKKE
modifications: PEPTIDE (1)...(131) wild-type rat intestinal fatty acid binding protein
B2: 74T 72A 73F (protein, listed as Rattus norvegicus)
chain: B1 chain with I18M, L31G, L55F, A73F, D74T
modifications: PEPTIDE (1)...(131) wild-type rat intestinal fatty acid binding protein
B3: 18I 31V 55V 73V 72A (protein, listed as Rattus norvegicus)
chain: B1 chain with L31V, L55V, A73V
modifications: PEPTIDE (1)...(131) wild-type rat intestinal fatty acid binding protein
B4: 38Y 117A 72A (protein, listed as Rattus norvegicus)
chain: B1 chain with I18M, L31G, L38Y, L55F, Y117A
modifications: PEPTIDE (1)...(131) wild-type rat intestinal fatty acid binding protein
B5: 72S 73Q 74A (protein, listed as Rattus norvegicus)
chain: B1 chain with I18M, L31G, L55F, A72S, A73Q, D74A
modifications: PEPTIDE (1)...(131) wild-type rat intestinal fatty acid binding protein
B6: 74E 72A 73F (protein, listed as Rattus norvegicus)
chain: B1 chain with I18M, L31G, L55F, A73F, D74E
modifications: PEPTIDE (1)...(131) wild-type rat intestinal fatty acid binding protein
B7: 72G 73F 74N (protein, listed as Rattus norvegicus)
chain: B1 chain with I18M, L31G, L55F, A72G, A73F, D74N
modifications: PEPTIDE (1)...(131) wild-type rat intestinal fatty acid binding protein
B8: 72E 73V 74A (protein, listed as Rattus norvegicus)
chain: B1 chain with I18M, L31G, L55F, A72E, A73V, D74A
modifications: PEPTIDE (1)...(131) wild-type rat intestinal fatty acid binding protein
B9: 72S 73W 74G (protein, listed as Rattus norvegicus)
chain: B1 chain with I18M, L31G, L55F, A72S, A73W, D74G
modifications: PEPTIDE (1)...(131) wild-type rat intestinal fatty acid binding protein
B10: 55V 73F 72A (protein, listed as Rattus norvegicus)
chain: B1 chain with I18M, L31G, L55V, A73F
modifications: PEPTIDE (1)...(131) wild-type rat intestinal fatty acid binding protein
B11: 72A 73P 74E (protein, listed as Rattus norvegicus)
chain: B1 chain with I18M, L31G, L55F, A73P, D74E
modifications: PEPTIDE (1)...(131) wild-type rat intestinal fatty acid binding protein
B12: 18V 31F 55L 72A (protein, listed as Rattus norvegicus)
chain: B1 chain with I18V, L31F
modifications: PEPTIDE (1)...(131) wild-type rat intestinal fatty acid binding protein
B13: 73P 72A 74F (protein, listed as Rattus norvegicus)
chain: B1 chain with I18M, L31G, L55F, A73P, D74F
modifications: PEPTIDE (1)...(131) wild-type rat intestinal fatty acid binding protein
B14: 73T 72A 74F (protein, listed as Rattus norvegicus)
chain: B1 chain with I18M, L31G, L55F, A73T, D74F
modifications: PEPTIDE (1)...(131) wild-type rat intestinal fatty acid binding protein
B15: 74Q 72A 73F (protein, listed as Rattus norvegicus)
chain: B1 chain with I18M, L31G, L55F, A73F, D74Q
modifications: PEPTIDE (1)...(131) wild-type rat intestinal fatty acid binding protein
B16: 18V 31A 55I 72A (protein, listed as Rattus norvegicus)
chain: B1 chain with I18V, L31A, L55I
modifications: PEPTIDE (1)...(131) wild-type rat intestinal fatty acid binding protein
B17: 18I 31M 55M 72A (protein, listed as Rattus norvegicus)
chain: B1 chain with L31M, L55M
modifications: PEPTIDE (1)...(131) wild-type rat intestinal fatty acid binding protein
B18: 18V 31F 73M 72A (protein, listed as Rattus norvegicus)
chain: B1 chain with I18V, L31F, L55F, A73M
modifications: PEPTIDE (1)...(131) wild-type rat intestinal fatty acid binding protein
B19: 74S 72A 73F (protein, listed as Rattus norvegicus)
chain: B1 chain with I18M, L31G, L55F, A73F, D74S
modifications: PEPTIDE (1)...(131) wild-type rat intestinal fatty acid binding protein
B20: 38I 74F 72A (protein, listed as Rattus norvegicus)
chain: B1 chain with I18M, L31G, L38I, L55F, D74F
modifications: PEPTIDE (1)...(131) wild-type rat intestinal fatty acid binding protein

Assay: Probe fluorescence ratio response to oleic acid relative to ADIFAB2
Assay type: binding
Conditions: response relative to ADIFAB2
Procedure, shortened: (§1)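 Each fatty acid's response was expressed relative to ADIFAB2, the rI-FABP-L72A probe, as ΔR/ΔRreference. ΔR is the change in the background-corrected two-wavelength intensity ratio R=Fλ1/Fλ2 from its analyte-free baseline R0. Emission was read near about 420-480 nm for unbound and about 495-580 nm for FFA-bound probe.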

Row | Molecule | DR/DR OA
1 | B1 | 0.759
2 | B2 | 0.634
3 | B3 | 0.448
4 | B4 | 1.976
5 | B5 | 1.875
6 | B6 | 0.575
7 | B7 | −0.032
8 | B8 | 0.524
9 | B9 | 0.970
10 | B10 | 0.661
11 | B11 | 1.802
12 | B12 | 0.649
13 | B13 | 0.868
14 | B14 | 1.161
15 | B15 | 0.390
16 | B16 | 0.791
17 | B17 | 0.601
18 | B18 | 0.794
19 | B19 | 0.630
20 | B20 | 0.764

Assay: Probe fluorescence ratio response to palmitic acid relative to ADIFAB2
Assay type: binding
Conditions: response relative to ADIFAB2
Procedure, shortened: as §1

Row | Molecule | DR/DR PA
21 | B1 | 1.523
22 | B2 | 1.150
23 | B3 | 0.974
24 | B4 | 0.933
25 | B5 | 1.896
26 | B6 | 1.026
27 | B7 | 0.456
28 | B8 | 0.736
29 | B9 | 1.653
30 | B10 | 1.082
31 | B11 | 1.732
32 | B12 | 1.035
33 | B13 | 1.278
34 | B14 | 1.632
35 | B15 | 0.649
36 | B16 | 1.280
37 | B17 | 1.099
38 | B18 | 1.395
39 | B19 | 1.158
40 | B20 | 1.343

Assay: Probe fluorescence ratio response to palmitoleic acid relative to ADIFAB2
Assay type: binding
Conditions: response relative to ADIFAB2
Procedure, shortened: as §1

Row | Molecule | DR/DR POA
41 | B1 | 2.011
42 | B2 | 2.309
43 | B3 | 1.236
44 | B4 | 0.839
45 | B5 | 2.293
46 | B6 | 2.395
47 | B7 | 1.499
48 | B8 | 1.093
49 | B9 | 2.422
50 | B10 | 2.264
51 | B11 | 2.087
52 | B12 | 1.353
53 | B13 | 1.776
54 | B14 | 2.450
55 | B15 | 1.479
56 | B16 | 1.563
57 | B17 | 1.353
58 | B18 | 1.538
59 | B19 | 2.413
60 | B20 | 2.112

Assay: Probe fluorescence ratio response to linoleic acid relative to ADIFAB2
Assay type: binding
Conditions: response relative to ADIFAB2
Procedure, shortened: as §1

Row | Molecule | DR/DR LA
61 | B1 | 1.442
62 | B2 | 1.185
63 | B3 | 0.853
64 | B4 | 1.869
65 | B5 | 2.140
66 | B6 | 1.093
67 | B7 | 0.454
68 | B8 | 0.735
69 | B9 | 1.375
70 | B10 | 1.223
71 | B11 | 1.741
72 | B12 | 0.996
73 | B13 | 0.838
74 | B14 | 1.389
75 | B15 | 0.711
76 | B16 | 1.334
77 | B17 | 1.134
78 | B18 | 1.296
79 | B19 | 1.035
80 | B20 | 1.162

Assay: Probe fluorescence ratio response to arachidonic acid relative to ADIFAB2
Assay type: binding
Conditions: arachidonic acid; response relative to ADIFAB2
Procedure, shortened: as §1

Row | Molecule | DR/DR AA
81 | B1 | 1.285
82 | B2 | 0.852
83 | B3 | 0.632
84 | B4 | 2.216
85 | B5 | 2.290
86 | B6 | 0.703
87 | B7 | 0.617
88 | B8 | 0.478
89 | B9 | 1.012
90 | B10 | 0.864
91 | B11 | 1.975
92 | B12 | 0.921
93 | B13 | 1.078
94 | B14 | 0.939
95 | B15 | 0.465
96 | B16 | 0.989
97 | B17 | 1.010
98 | B18 | 1.014
99 | B19 | 0.893
100 | B20 | 0.787

Assay: Probe fluorescence ratio response to linolenic acid relative to ADIFAB2
Assay type: binding
Conditions: response relative to ADIFAB2
Procedure, shortened: as §1

Row | Molecule | DR/DR LNA
101 | B1 | 1.736
102 | B2 | 1.635
103 | B3 | 1.179
104 | B4 | 1.547
105 | B5 | 2.077
106 | B6 | 1.558
107 | B7 | 1.367
108 | B8 | 0.784
109 | B9 | 1.706
110 | B10 | 1.566
111 | B11 | 1.863
112 | B12 | 1.180
113 | B13 | 1.518
114 | B14 | 1.661
115 | B15 | 1.025
116 | B16 | 1.580
117 | B17 | 1.358
118 | B18 | 1.511
119 | B19 | 1.433
120 | B20 | 1.395

Assay: Probe fluorescence ratio response to stearic acid relative to ADIFAB2
Assay type: binding
Conditions: response relative to ADIFAB2
Procedure, shortened: as §1

Row | Molecule | DR/DR SA
121 | B1 | 0.310
122 | B2 | 0.273
123 | B3 | 0.233
124 | B4 | 1.201
125 | B5 | 1.311
126 | B6 | 0.251
127 | B7 | −0.043
128 | B8 | 0.234
129 | B9 | 0.411
130 | B10 | 0.285
131 | B11 | 1.512
132 | B12 | 0.358
133 | B13 | 0.494
134 | B14 | 0.519
135 | B15 | 0.177
136 | B16 | 0.420
137 | B17 | 0.296
138 | B18 | 0.383
139 | B19 | 0.337
140 | B20 | 0.503
